In publication PMC5814829:

Key:
Assay in all cases: fluorescence anisotropy
ScPif1p K595A = biological target: T1, ScPif1p K595A (Saccharomyces cerevisiae, UniProt P07271 237-780, K595A)
T1 sequence: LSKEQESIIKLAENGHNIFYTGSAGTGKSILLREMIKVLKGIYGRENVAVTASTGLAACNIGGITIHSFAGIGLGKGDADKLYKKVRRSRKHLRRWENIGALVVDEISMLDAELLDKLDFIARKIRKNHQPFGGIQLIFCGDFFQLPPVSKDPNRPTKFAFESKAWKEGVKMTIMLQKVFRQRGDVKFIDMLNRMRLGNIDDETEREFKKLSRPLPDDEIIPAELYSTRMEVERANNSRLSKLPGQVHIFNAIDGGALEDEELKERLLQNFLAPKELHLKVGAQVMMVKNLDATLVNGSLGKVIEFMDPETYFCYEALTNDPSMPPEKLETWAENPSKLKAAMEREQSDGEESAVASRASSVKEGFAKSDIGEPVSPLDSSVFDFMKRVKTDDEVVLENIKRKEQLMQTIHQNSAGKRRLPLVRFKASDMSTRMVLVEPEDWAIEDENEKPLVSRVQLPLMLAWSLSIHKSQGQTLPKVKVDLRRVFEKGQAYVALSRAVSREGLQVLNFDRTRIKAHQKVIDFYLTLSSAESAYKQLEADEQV

ScPif1p D677T = biological target: T2, ScPif1p D677T (Saccharomyces cerevisiae, UniProt P07271 237-780, D677T)
T2 sequence: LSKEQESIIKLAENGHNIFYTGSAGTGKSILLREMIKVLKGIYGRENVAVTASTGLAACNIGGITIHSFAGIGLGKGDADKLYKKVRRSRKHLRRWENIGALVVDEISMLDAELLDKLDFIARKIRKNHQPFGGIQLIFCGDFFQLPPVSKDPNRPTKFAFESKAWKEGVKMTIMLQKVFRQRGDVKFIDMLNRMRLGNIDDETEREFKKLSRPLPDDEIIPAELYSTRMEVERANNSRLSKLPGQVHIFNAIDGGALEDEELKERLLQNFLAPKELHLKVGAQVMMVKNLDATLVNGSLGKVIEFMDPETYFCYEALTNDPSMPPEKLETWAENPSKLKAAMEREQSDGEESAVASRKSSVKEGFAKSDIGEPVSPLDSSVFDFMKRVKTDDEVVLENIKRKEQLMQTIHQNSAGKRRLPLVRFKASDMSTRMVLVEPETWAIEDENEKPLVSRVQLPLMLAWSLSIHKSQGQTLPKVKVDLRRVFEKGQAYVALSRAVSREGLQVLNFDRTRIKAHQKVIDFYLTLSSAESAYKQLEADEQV

ScPif1p (237-780) = biological target: T3, ScPif1p (237-780) (Saccharomyces cerevisiae, UniProt P07271 237-780)
T3 sequence: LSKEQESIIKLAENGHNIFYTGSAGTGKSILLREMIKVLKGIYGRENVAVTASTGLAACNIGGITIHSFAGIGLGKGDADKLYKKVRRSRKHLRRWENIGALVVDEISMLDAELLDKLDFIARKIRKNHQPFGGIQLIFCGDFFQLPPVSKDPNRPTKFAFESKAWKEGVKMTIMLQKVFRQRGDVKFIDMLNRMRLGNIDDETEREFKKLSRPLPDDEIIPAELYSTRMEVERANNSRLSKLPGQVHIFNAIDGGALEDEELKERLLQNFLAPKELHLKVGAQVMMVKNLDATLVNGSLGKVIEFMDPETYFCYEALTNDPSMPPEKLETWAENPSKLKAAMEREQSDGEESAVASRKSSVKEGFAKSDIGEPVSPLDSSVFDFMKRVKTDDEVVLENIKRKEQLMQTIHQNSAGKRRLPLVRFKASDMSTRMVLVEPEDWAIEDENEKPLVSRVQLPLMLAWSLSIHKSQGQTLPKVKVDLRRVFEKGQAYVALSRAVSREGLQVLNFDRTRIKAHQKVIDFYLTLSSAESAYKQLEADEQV

B1: GR12 (ssDNA)
DNA: GTGTGTGTGGTG
B1 was tested, and the Kd (ScPif1p K595A) was 10.2 ± 1.8 nM, the Kd (ScPif1p D677T) was 10.5 ± 2.6 nM and the Kd (ScPif1p (237-780)) was 6.1 nM.
